According to the RNAGym collection of RNA variant scans (doi:10.7554/elife.80360):

B1: Hairpin Ribozyme (parent)
chain: GUCCUCUUUCACGUGCGCGUGAAAGAGAGAAGUGAACCAGAGAAACACACGUUGUGGUAUAUUACCUGGUA

Variants of: B1
Assay: self-cleavage, relative activity (ratio to wild type); higher = more cleavage; co-transcriptional
G40A A59C showed a self-cleavage of 0.121.
A41U G51U gave a self-cleavage of 1.5.
U14A U55A showed a self-cleavage of 0.201.
For G13C G25U, the self-cleavage was 0.436.
In the case of U7A G56A, the self-cleavage is reported as 0.182.
Work on A59C U63A yielded a self-cleavage of 0.169.
For C10A U70G, the self-cleavage was 0.767.
U9C G13A showed a self-cleavage of 0.531.
Work on C16U G51C yielded a self-cleavage of 1.08.
In the case of U33G U58C, the self-cleavage is reported as 0.119.
In the case of A26U G32A, the self-cleavage is reported as 0.154.
In the case of G56U U63C, the self-cleavage is reported as 0.169.
Variant C12U A36U has a self-cleavage of 0.584.
With G32C A35C the self-cleavage was 0.
For C3G G32U, the self-cleavage was 0.141.
A31U A64G showed a self-cleavage of 0.0407.
U33C U70C showed a self-cleavage of 0.0962.
Work on U7G A39U yielded a self-cleavage of 0.421.
Variant A43C U58A has a self-cleavage of 0.174.
With G34C A71C the self-cleavage was 1.76.
Work on A39C U67G yielded a self-cleavage of 0.548.
U5G C48U gave a self-cleavage of 0.196.
Variant G13U G42C has a self-cleavage of 0.227.
For C16G G40A, the self-cleavage was 0.198.
Work on A23U G69C yielded a self-cleavage of 0.325.
Work on C6A C16A yielded a self-cleavage of 0.561.
Work on C16U A28C yielded a self-cleavage of 0.565.
In the case of C18U C50U, the self-cleavage is reported as 0.326.
Variant A49G G57C has a self-cleavage of 0.0948.
Variant C4A C10U has a self-cleavage of 0.261.
Work on G27C C46U yielded a self-cleavage of 0.106.
In the case of G25U U58C, the self-cleavage is reported as 0.503.
Variant G32U A43C has a self-cleavage of 0.0806.
U33G C46A gave a self-cleavage of 0.0768.
Variant G56U U70C has a self-cleavage of 0.271.
A26G A71G gave a self-cleavage of 0.935.
U2A A64C gave a self-cleavage of 0.112.
G56C G69U gave a self-cleavage of 0.313.
A23G A39U gave a self-cleavage of 0.252.
In the case of A11U A41C, the self-cleavage is reported as 1.01.
Variant A23C A41C has a self-cleavage of 0.948.
Work on U20C A30C yielded a self-cleavage of 0.217.
Variant U33A C48U has a self-cleavage of 0.0718.
With A23U U62C the self-cleavage was 0.247.
Work on G15A A28C yielded a self-cleavage of 0.586.
In the case of A31U C48A, the self-cleavage is reported as 0.166.
With G25C A28U the self-cleavage was 0.327.
Work on U14A A28C yielded a self-cleavage of 0.454.
G34A A36G showed a self-cleavage of 1.19.
With A41G U52G the self-cleavage was 1.15.
Work on U20G G57A yielded a self-cleavage of 0.195.
U14C U70G gave a self-cleavage of 0.679.
C6G C16A showed a self-cleavage of 0.54.
Work on A24C U33G yielded a self-cleavage of 0.152.
For U14A G27U, the self-cleavage was 0.192.
For U14G A26C, the self-cleavage was 0.522.
Work on U52A A61G yielded a self-cleavage of 0.22.
In the case of U14C A71C, the self-cleavage is reported as 1.59.
In the case of U5A U60A, the self-cleavage is reported as 0.477.
In the case of U33G G54A, the self-cleavage is reported as 0.111.
A31G U55A showed a self-cleavage of 0.105.
A11G G34U gave a self-cleavage of 1.17.
U8A A23G gave a self-cleavage of 0.808.
Variant A47C U60C has a self-cleavage of 0.418.
In the case of A43G U67C, the self-cleavage is reported as 0.153.
For U14C A39U, the self-cleavage was 0.387.
A39U A47U showed a self-cleavage of 0.164.
G17C C37G gave a self-cleavage of 0.362.
For U9G A28C, the self-cleavage was 0.315.
With G1A G19A the self-cleavage was 0.203.
C3G A24G gave a self-cleavage of 0.294.
Variant A24C A39C has a self-cleavage of 0.554.
In the case of A43C G56A, the self-cleavage is reported as 0.13.
Variant C38A G54U has a self-cleavage of 0.135.
A24U U62C gave a self-cleavage of 0.293.
With U33G A61U the self-cleavage was 0.0863.
For U9A A36U, the self-cleavage was 0.283.
Variant U7A C16U has a self-cleavage of 0.85.
Work on C16U C18A yielded a self-cleavage of 0.985.
In the case of G19U A22G, the self-cleavage is reported as 0.715.
Work on G40C yielded a self-cleavage of 0.128.
C16A C18G gave a self-cleavage of 0.841.
Work on U9G A22U yielded a self-cleavage of 0.564.
Work on A30U G68U yielded a self-cleavage of 0.207.
A41U A64C gave a self-cleavage of 0.153.
Variant G17A G56C has a self-cleavage of 0.185.
Work on A45C G56A yielded a self-cleavage of 0.144.
Work on G69U U70A yielded a self-cleavage of 0.346.
For A28U C66U, the self-cleavage was 0.207.
For U2C G13C, the self-cleavage was 0.121.
Work on C4U U20G yielded a self-cleavage of 0.213.
Variant C12A U52G has a self-cleavage of 0.757.
For U5C A26U, the self-cleavage was 0.505.
Work on U33G G57C yielded a self-cleavage of 0.108.
C48U C65A gave a self-cleavage of 0.086.
With U2A G42A the self-cleavage was 0.107.
In the case of G57A A64G, the self-cleavage is reported as 0.131.
U14G A26U gave a self-cleavage of 0.549.
A22U G54A gave a self-cleavage of 0.335.
Variant A26C G51C has a self-cleavage of 0.714.
With C18G A49U the self-cleavage was 0.196.
A45U U70C gave a self-cleavage of 0.056.
With A36U U62A the self-cleavage was 0.154.
G34U A44C showed a self-cleavage of 0.202.
With G15A G51C the self-cleavage was 0.79.
Work on G42C A64G yielded a self-cleavage of 0.232.
U8C A24U gave a self-cleavage of 0.369.
Variant A36G A43G has a self-cleavage of 0.0267.
For U5C G54C, the self-cleavage was 0.169.
U9A G42A gave a self-cleavage of 0.132.
C48A A49G gave a self-cleavage of 0.215.
G27U G56A showed a self-cleavage of 0.0845.
For C4A A45G, the self-cleavage was 0.151.
In the case of A39U A61G, the self-cleavage is reported as 0.0916.
A44U A59U gave a self-cleavage of 0.0331.
C6A A35C showed a self-cleavage of 0.695.
With U9A G27U the self-cleavage was 0.326.
With A11C C18G the self-cleavage was 0.775.
Variant C38U C46G has a self-cleavage of 0.123.
Work on U33C U70G yielded a self-cleavage of 0.147.
In the case of U14A A59G, the self-cleavage is reported as 0.0952.
G51U C66G showed a self-cleavage of 0.2.
Variant U5G A41C has a self-cleavage of 0.571.
U9A C66G gave a self-cleavage of 0.0453.
Variant G1U A23G has a self-cleavage of 0.183.
For C6U G57A, the self-cleavage was 0.117.
A11U A47U gave a self-cleavage of 0.266.
With U14C A61G the self-cleavage was 0.133.
For A11G C65G, the self-cleavage was 0.31.
Work on G27C G32C yielded a self-cleavage of 0.13.
A39C A44U showed a self-cleavage of 0.129.
Variant G1C A39U has a self-cleavage of 0.187.
C10A A23U gave a self-cleavage of 0.666.
For A26C A59C, the self-cleavage was 0.0674.
C6G G40U showed a self-cleavage of 0.103.
Variant U9C A24G has a self-cleavage of 0.844.
For C12U A47G, the self-cleavage was 0.131.
Work on A35U G40C yielded a self-cleavage of 0.185.
For G34C C46A, the self-cleavage was 0.238.
C6U G21C showed a self-cleavage of 0.597.
Variant G40C G54C has a self-cleavage of 0.114.
U62C U63C gave a self-cleavage of 0.168.
For A47U G57U, the self-cleavage was 0.0955.
In the case of A41U U62G, the self-cleavage is reported as 0.202.
Work on A31U A47G yielded a self-cleavage of 0.101.
In the case of U7G A41U, the self-cleavage is reported as 1.12.
With G1U A11C the self-cleavage was 0.0545.
Work on U2G G27U yielded a self-cleavage of 0.172.
With U9A G69U the self-cleavage was 0.245.
For A39C U70G, the self-cleavage was 0.232.
For A22U C37G, the self-cleavage was 0.339.
U55A U67A showed a self-cleavage of 0.219.
In the case of C12G C46G, the self-cleavage is reported as 0.17.
Work on A23C U63G yielded a self-cleavage of 0.273.
G13U A44G gave a self-cleavage of 0.199.
For A45U U52A, the self-cleavage was 0.122.
Work on U9G C48A yielded a self-cleavage of 0.12.
Variant G25A A47U has a self-cleavage of 0.108.
Variant G25A G56A has a self-cleavage of 0.105.
U33A showed a self-cleavage of 0.147.
For G34C C37A, the self-cleavage was 0.898.
Work on A31G C38G yielded a self-cleavage of 0.0773.
In the case of A23U C37A, the self-cleavage is reported as 0.324.
U33A G34A gave a self-cleavage of 0.0987.
Work on C50U U62G yielded a self-cleavage of 0.158.
U2A G21C showed a self-cleavage of 0.186.
Work on U8C U52G yielded a self-cleavage of 0.709.
